Laboratory results reported in PMC11115250.

Target: PPARγ (plasmid-encoded, Addgene #8862) (UniProt P37238)

**Q.** With “ZFP407 (plasmid-encoded, Origene cat. MR214555) (natural protein)” as the substance, how does the PPRE luciferase reporter in 293T cells, PPARγ co-transfected with WT ZFP407 against PPARγ alone read?
**A.** > 2 fold
